Assay results taken from publication doi:10.1101/2024.10.06.616194.

Measured: catalytic (cyclization) activity of the GpeC mutant relative to the wild type

WFWMLYHHM [SGpeA2 (minimal 9-mer substrate)]
> 50%: GpeC R152A | GpeC F214A | GpeC Y163A | GpeC R160A
